Data reported in patent publication US20230406901A1.

Target: growth hormone receptor (GHR) on BAF3/GHR cells
Assay: cell-based or functional assay

EC50(nM), proliferation of BAF3/GHR cells (Alamar-Blue): 3.19 nM
Relative potency, proliferation of BAF3/GHR cells (Alamar-Blue): 37.7%
Substance: growth hormone fusion protein containing a flexible linker, GH(GGGGS)4 (from UniProt P01861 100-325) (Fc fusion)
